According to patent US10428140B2, “Anti-EphA4 antibody” (EISAI R&D MANAGEMENT CO., LTD., priority 2015, dated 2019):

How the values were obtained:
[1] = target: T1, human EphA4 (binding to human Ephrin A5) (Homo sapiens, UniProt P54764); test: Human EphA4-human ligand binding inhibition ELISA of humanized antibodies (biotinylated Ephrin A5-Fc); details: biotinylated human Ephrin A5-Fc 0.7 nM
T1 construct: made in house; not restated for the human SEAP-His protein
Experimental: Each anti-EphA4 monoclonal humanized antibody obtained in Example 16 was evaluated for its inhibitory activity against the binding between human EphA4 and its human ligand according to the following steps. Each well of a 96-well plate (Nunc) was coated with an anti-alkaline phosphatase antibody (Thermo Fisher Scientific). After incubation overnight at 4° C., each well was blocked with 1% BlockAce (DS Pharma Biomedical) at room temperature for 1 hour. After washing with 0.05% Tween 20/PBS (Thermo Fisher Scientific) three times, the human EphA4 extracellular region-SEAP-His protein obtained by the method of Example 2 was added (final concentration: 10 nM) to each well and incubated at room temperature for 1 hour. After washing three times, a ligand and each serially diluted humanized antibody of antibody A (0, 0.003, 0.01, 0.03, 0.1, 0.3, 1, 3, 10, 30, 100, 300, 1000, and 3000 nM) were added to each well. The ligand used was biotinylated human Ephrin A5-Fc chimera (R&D Systems, final concentration: 0.7 nM). After incubation at room temperature for 1 hour and subsequent washing three times, horseradish peroxidase-labeled streptavidin (GE Healthcare) was added thereto and incubated at room temperature for 1 hour. After washing three times, a TMBZ (3,3′,5,5′-tetramethylbenzidine, Sigma-Aldrich) solution was added to each well and incubated at room temperature for 2 minutes. An equal amount of a reaction stopping solution (1N H2SO4, Wako Pure Chemical Industries) was added to each well. The absorbance at 450 nm was read using a microplate reader (PerkinElmer).

[2] = target: T2, human EphA4 (Homo sapiens, UniProt P54764); test: Affinity of humanized antibodies by SPR (Biacore T200); format: binding; details: human EphA4 extracellular region-SEAP-His; for ka / kd: 1:1 binding model; for Kd: KD=kd/ka
T2 construct: made in house; not restated for the human SEAP-His protein
Experimental: The binding affinity of each anti-EphA4 monoclonal humanized antibody obtained in Example 16 for human EphA4 was determined by surface plasmon resonance (SPR) using Biacore T200 (GE Healthcare). First, for the assay of antibody A, a rat anti-mouse IgG1 antibody produced with a conventional method by immunizing rat with mouse IgG1 antibody was immobilized on sensor chip CM5. The immobilization of the rat anti-mouse IgG1 antibody on sensor chip CM5 was performed by the amine coupling method using N-hydroxysuccinimide (NHS) and N-ethyl-N′-(3-dimethylaminopropyl)carbodiimide hydrochloride (EDC). Ethanolamine was used in blocking (the sensor chip and the reagents for immobilization were all manufactured by GE Healthcare). The antibody was diluted with a buffer solution for immobilization (10 mM sodium acetate, pH 4.5) and immobilized on the sensor chip according to the protocol attached to Biacore T200. For the assay of each humanized monoclonal antibody, a protein A chip (GE Healthcare, 29-1383-03) was used. Antibody A or the humanized monoclonal antibody was diluted with a running buffer solution HBS-EP (GE Healthcare), injected onto only flow cell 2 for 120 seconds, and captured (captured amount: approximately 30 to 60 RU). Subsequently, human EphA4 extracellular region-SEAP-His protein serially diluted in the range of 50, 16.7, 5.6, 1.9, and 0.6 nM using HBS-EP was sequentially added from the lower toward higher concentration sides without regeneration operation. Binding reaction curves were sequentially observed at the time of the addition (association phase, for 120 sec) and after the completion of the addition (dissociation phase, for 900 sec). After the completion of each observation, the sensor chip was regenerated by the addition of 3 M MgCl2 (for 60 sec) or 10 mM Glycine-HCl pH 1.5 (for 30 sec). The obtained binding reaction curves were subjected to fitting analysis with 1:1 binding models using software BIA evaluation attached to the system to calculate the affinity (KD=kd/ka) for human EphA4 (Table 6).

T2 sequence (P54764 20-547): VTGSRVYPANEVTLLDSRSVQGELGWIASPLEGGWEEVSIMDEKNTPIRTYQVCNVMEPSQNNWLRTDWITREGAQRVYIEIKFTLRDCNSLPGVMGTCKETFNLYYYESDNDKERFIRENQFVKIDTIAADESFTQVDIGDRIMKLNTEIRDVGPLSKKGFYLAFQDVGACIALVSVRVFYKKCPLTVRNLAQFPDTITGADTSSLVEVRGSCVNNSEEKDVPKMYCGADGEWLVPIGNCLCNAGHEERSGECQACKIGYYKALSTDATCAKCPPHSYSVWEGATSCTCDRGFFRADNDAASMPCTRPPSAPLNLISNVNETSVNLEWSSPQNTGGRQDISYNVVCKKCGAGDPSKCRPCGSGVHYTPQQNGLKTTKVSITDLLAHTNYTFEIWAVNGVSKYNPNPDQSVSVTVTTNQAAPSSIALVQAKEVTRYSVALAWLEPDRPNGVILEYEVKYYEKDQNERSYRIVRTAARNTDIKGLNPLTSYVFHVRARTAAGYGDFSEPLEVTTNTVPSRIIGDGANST
T1 sequence (P54764 20-547): as above

Row | Molecule | IC50 [1] [nM] | ka [2] [M⁻¹ s⁻¹] | kd [2] [s⁻¹] | Kd [2] [nM]
1 | 92 (antibody, V domains shown, constant regions without entry; synthetic humanized antibody light chain variable region sequence; synthetic humanized antibody heavy chain variable region sequence) VL: DIQMTQSPSSLSASVGDRVTITCRASENIYRNLAWYQQKPGKAPQLLLYAATNLADGVPSRFSGSGSGTDYTLTISSLQPEDFATYYCQHFWGTPWTFGQGTKVEIK VH: QIQLVQSGSELKKPGASVKVSCKASGYTFTDYSMHWVRQAPGQGLKWMGWINTETGEPTYADDFKGRFVFSLDTSVSTAYLQISSLKAEDTAVYYCARIPLYYYGSRYWYFDVWGQGTTVTVSS | 3.5 | 330000 | 0.00043 | 1.3
2 | 95 (antibody, V domains shown, constant regions without entry; synthetic humanized antibody light chain variable region sequence; synthetic humanized antibody heavy chain variable region sequence) VL: EIVMTQSPATLSVSPGERATLSCRASENIYRNLAWYQQKPGQSPRLLIYAATNLADGIPARFSGSGSGTEYTLTISSLQSEDFAVYYCQHFWGTPWTFGQGTKVEIK VH: QVQLVQSGSELKKPGASVKVSCKASGYTFTDYSMHWVRQAPGQGLEWMGWINTETGEPTYADDFKGRFVFSLDTSVSTAYLQISSLKAEDTAVYYCARIPLYYYGSRYWYFDVWGQGTTVTVSS | 3.1 | 300000 | 0.00031 | 1
3 | 94 (antibody, V domains shown, constant regions without entry; synthetic humanized antibody light chain variable region sequence; synthetic humanized antibody heavy chain variable region sequence) VL: EIVMTQSPATLSVSPGERATLSCRASENIYRNLAWYQQKPGQSPRLLIYAATNLADGIPARFSGSGSGTEYTLTISSLQSEDFAVYYCQHFWGTPWTFGQGTKVEIK VH: QVQLVQSGSELKKPGASVKVSCKASGYTFTDYSMHWVRQAPGQGLKWMGWINTETGEPTYAQGFTGRFVFSLDTSVSTAYLQISSLKAEDTAVYYCARIPLYYYGSRYWYFDVWGQGTTVTVSS | 2.7 | 260000 | 0.00024 | 0.95
4 | 96 (antibody, V domains shown, constant regions without entry; synthetic humanized antibody light chain variable region sequence; synthetic humanized antibody heavy chain variable region sequence) VL: EIVMTQSPATLSVSPGERATLSCRASENIYRNLAWYQQKPGQSPRLLIYAATNLADGIPARFSGSGSGTEYTLTISSLQSEDFAVYYCQHFWGTPWTFGQGTKVEIK VH: QVQLVQSGSELKKPGASVKVSCKASGYTFTDYSMHWVRQAPGQGLKWMGWINTETGEPTYADDFKGRFVFSLDTSVSTAYLQISSLKAEDTAVYYCARIPLYYYGSRYWYFDVWGQGTTVTVSS | 3.7 | 270000 | 0.00031 | 1.1
5 | 140 (antibody, V domains shown, synthetic humanized antibody heavy chain variable region sequence; synthetic humanized antibody light chain variable region sequence) VH: QVQLVQSGSELKKPGASVKVSCKASGYTFTDYSMHWVRQAPGQGLKWMGWINTETGEPTYAQGFTGRFVFSLDTSVSTAYLQISSLKAEDTAVYYCARIPLYYYGSRYWYFDVWGQGTTVTVSS VL: DIQMTQSPSSLSASVGDRVTITCRASENIYRNLAWYQQKPGKAPKLLVYAATNLADGVPSRFSGSGSGTDYTLTISSLQPEDFATYYCQHFWGTPWTFGQGTKVEIK | 2.4 | 320000 | 0.00043 | 1.4

Next, values leading:

Row | IC50 [1] [nM] | ka [2] [M⁻¹ s⁻¹] | kd [2] [s⁻¹] | Kd [2] [nM] | Molecule
6 | 2.5 | 280000 | 0.00023 | 0.82 | 71 (antibody, V domains shown, synthetic humanized antibody heavy chain variable region sequence; synthetic humanized antibody light chain variable region sequence) VH: QIQLVQSGSELKKPGASVKVSCKASGYTFTDYSMHWVRQAPGQGLKWMGWINTETGEPTYAQGFTGRFVFSLDTSVSTAYLQISSLKAEDTAVYYCARIPLYYYGSRYWYFDVWGQGTTVTVSS VL: EIVMTQSPATLSVSPGERATLSCRASENIYRNLAWYQQKPGQSPRLLIYAATNLADGIPARFSGSGSGTEYTLTISSLQSEDFAVYYCQHFWGTPWTFGQGTKVEIK
7 | 2.5 | 310000 | 0.00024 | 0.77 | 93 (antibody, V domains shown, constant regions without entry; synthetic humanized antibody light chain variable region sequence; synthetic humanized antibody heavy chain variable region sequence) VL: EIVMTQSPATLSVSPGERATLSCRASENIYRNLAWYQQKPGQSPRLLIYAATNLADGIPARFSGSGSGTEYTLTISSLQSEDFAVYYCQHFWGTPWTFGQGTKVEIK VH: QVQLVQSGSELKKPGASVKVSCKASGYTFTDYSMHWVRQAPGQGLEWMGWINTETGEPTYAQGFTGRFVFSLDTSVSTAYLQISSLKAEDTAVYYCARIPLYYYGSRYWYFDVWGQGTTVTVSS
8 | 2.4 | 290000 | 0.00027 | 0.93 | 73 (antibody, V domains shown, synthetic humanized antibody heavy chain variable region sequence; synthetic humanized antibody light chain variable region sequence) VH: QIQLVQSGSELKKPGASVKVSCKASGYTFTDYSMHWVRQAPGQGLKWMGWINTETGEPTYADDFKGRFVFSLDTSVSTAYLQISSLKAEDTAVYYCARIPLYYYGSRYWYFDVWGQGTTVTVSS VL: EIVMTQSPATLSVSPGERATLSCRASENIYRNLAWYQQKPGQSPRLLIYAATNLADGIPARFSGSGSGTEYTLTISSLQSEDFAVYYCQHFWGTPWTFGQGTKVEIK
9 | 3.3 | 370000 | 0.00053 | 1.4 | 139 (antibody, synthetic humanized antibody heavy chain variable region sequence; synthetic humanized antibody light chain variable region sequence; synthetic antibody constant region sequence) VH: QVQLVQSGSELKKPGASVKVSCKASGYTFTDYSMHWVRQAPGQGLEWMGWINTETGEPTYAQGFTGRFVFSLDTSVSTAYLQISSLKAEDTAVYYCARIPLYYYGSRYWYFDVWGQGTTVTVSS VL: DIQMTQSPSSLSASVGDRVTITCRASENIYRNLAWYQQKPGKAPKLLVYAATNLADGVPSRFSGSGSGTDYTLTISSLQPEDFATYYCQHFWGTPWTFGQGTKVEIK ASTKGPSVFPLAPSSRSTSESTAALGCLVKDYFPEPVTVSWNSGALTSGVHTFPAVLQSSGLYSLSSVVTVPSSNFGTQTYTCNVDHKPSNTKVDKTVERKSCVECPPCPAPPAAAPSVFLFPPKPKDTLMISRTPEVTCVVVDVSHEDPEVQFNWYVDGVEVHNAKTKPREEQFNSTFRVVSVLTVVHQDWLNGKEYKCKVSNKGLPAPIEKTISKTKGQPREPQVYTLPPSREEMTKNQVSLTCLVKGFYPSDIAVEWESNGQPENNYKTTPPMLDSDGSFFLYSKLTVDKSRWQQGNVFSCSVMHEALHNHYTQKSLSLSPG
